The record followed here is US20240116985A1 (published 2024).

T1: B-cat-Halo (UniProt P35222 1-781)
T1 sequence (looked up): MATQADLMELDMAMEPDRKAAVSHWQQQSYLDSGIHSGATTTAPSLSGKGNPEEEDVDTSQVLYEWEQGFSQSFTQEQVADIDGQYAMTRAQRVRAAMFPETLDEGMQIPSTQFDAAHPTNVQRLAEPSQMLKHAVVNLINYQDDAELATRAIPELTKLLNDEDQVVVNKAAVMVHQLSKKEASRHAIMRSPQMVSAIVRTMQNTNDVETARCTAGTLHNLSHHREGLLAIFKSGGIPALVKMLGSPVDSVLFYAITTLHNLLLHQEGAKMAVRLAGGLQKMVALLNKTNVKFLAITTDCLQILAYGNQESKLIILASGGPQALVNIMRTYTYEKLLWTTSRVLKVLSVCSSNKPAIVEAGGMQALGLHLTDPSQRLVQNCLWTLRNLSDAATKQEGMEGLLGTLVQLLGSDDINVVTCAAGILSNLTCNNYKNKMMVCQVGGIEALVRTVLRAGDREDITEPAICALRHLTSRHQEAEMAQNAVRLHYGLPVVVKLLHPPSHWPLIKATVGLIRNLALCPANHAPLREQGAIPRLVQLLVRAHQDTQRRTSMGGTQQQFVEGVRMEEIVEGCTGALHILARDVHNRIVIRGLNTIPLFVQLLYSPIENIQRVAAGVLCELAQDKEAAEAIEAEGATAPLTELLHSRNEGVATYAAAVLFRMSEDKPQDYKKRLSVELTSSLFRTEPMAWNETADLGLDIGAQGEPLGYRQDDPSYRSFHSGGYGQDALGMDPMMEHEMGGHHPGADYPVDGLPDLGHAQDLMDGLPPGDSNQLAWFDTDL

T2: B-cat-Halo (beta-catenin HaloTag NanoBRET construct expressed in HEK293 cells) (Homo sapiens (Human), UniProt P35222 1-781)
T2 sequence: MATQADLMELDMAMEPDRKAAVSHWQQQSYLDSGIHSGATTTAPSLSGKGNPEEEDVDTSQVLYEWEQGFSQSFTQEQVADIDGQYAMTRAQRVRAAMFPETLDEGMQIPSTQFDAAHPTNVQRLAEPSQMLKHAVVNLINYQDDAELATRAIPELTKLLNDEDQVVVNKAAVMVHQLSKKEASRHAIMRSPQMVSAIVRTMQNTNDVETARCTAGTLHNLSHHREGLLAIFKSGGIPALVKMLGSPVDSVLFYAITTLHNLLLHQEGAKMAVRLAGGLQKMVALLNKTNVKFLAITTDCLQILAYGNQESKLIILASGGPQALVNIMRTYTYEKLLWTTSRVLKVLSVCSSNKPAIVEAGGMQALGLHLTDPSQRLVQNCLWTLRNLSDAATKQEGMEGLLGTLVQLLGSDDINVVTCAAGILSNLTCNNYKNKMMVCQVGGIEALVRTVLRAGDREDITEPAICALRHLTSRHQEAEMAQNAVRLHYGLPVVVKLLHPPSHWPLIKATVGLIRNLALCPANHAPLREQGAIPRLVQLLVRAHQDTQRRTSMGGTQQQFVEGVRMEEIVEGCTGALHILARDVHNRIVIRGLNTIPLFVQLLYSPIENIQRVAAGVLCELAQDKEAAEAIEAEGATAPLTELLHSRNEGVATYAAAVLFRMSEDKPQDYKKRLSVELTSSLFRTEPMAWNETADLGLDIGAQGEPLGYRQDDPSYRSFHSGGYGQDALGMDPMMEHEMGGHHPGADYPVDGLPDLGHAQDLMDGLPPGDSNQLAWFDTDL

B1: I-1260 (peptide)
peptide: XDXXDDAAFTXFXQ
modifications: not fully specified; MeSO2-PL3-Asp-Npg-B5-Asp-Asp-Ala-Ala-Phe-Thr-S8-2C1F-BztA-Gln-NH2; stapled by olefin metathesis (PL3-B5 and B5-S8)
B2: I-1258 (peptide)
peptide: Ms-[αAllylPro]D[tBuAla][B5(33)]DDAAFN[PyrS2][Phe(2-Cl)][Bta][dT]-NH2
modifications: staple 1-4, 4-11; not fully specified; printed as MeSO2-PL3-Asp-Npg-B5-Asp-Asp-Ala-Ala-Phe-Asn-PyrS2-2C1F-BztA-dThr-NH2

Starred links: 1 amine or outer side, 2 acyl side, 3 side chain; linkers in the order of their positions; H or OH if unused. Positions of bridges follow the written chain, without caps; N, C: chain ends. Non-standard residues stand in square brackets, D forms with d. Primed or numbered codes have the meaning given here. *: point of attachment. PyrS2″ = (S)-3-amino-1-((pent-4-en-1-yloxy)carbonyl)pyrrolidine-3-carboxylic acid (stapling residue), C=CCCCOC(=O)N1CC[C@@](N[*:1])(C(=O)[*:2])C1; B5(24) = 2-amino-2-(pent-4-en-1-yl)hept-6-enoic acid, 2,2-bis(4-pentenyl)glycine (stitching residue), C=CCCCC(CCCC=C)(N[*:1])C(=O)[*:2]; B5(4) = 2,2-bis(4-pentenyl)glycine = 2-amino-2-(pent-4-en-1-yl)hept-6-enoic acid (stitching residue), C=CCCCC(CCCC=C)(N[*:1])C(=O)[*:2]; B5(5) = 2,2-bis(4-pentenyl)glycine, 2-amino-2-(pent-4-en-1-yl)hept-6-enoic acid (stitching residue), C=CCCCC(CCCC=C)(N[*:1])C(=O)[*:2]; B5(33) = 2-amino-2-(pent-4-en-1-yl)hept-6-enoic acid (bis-pentenylglycine, two olefin side chains), C=CCCCC(CCCC=C)(N[*:1])C(=O)[*:2]; PyrS2 = (S)-3-amino-1-((pent-4-en-1-yloxy)carbonyl)pyrrolidine-3-carboxylic acid, C=CCCCOC(=O)N1CC[C@@](N[*:1])(C(=O)[*:2])C1; B5(3) = 2,2-bis(4-pentenyl)glycine (stitching residue), C=CCCCC(CCCC=C)(N[*:1])C(=O)[*:2]; mPEG2 = N-terminal 3-(2-methoxyethoxy)propanoic acid, COCCOCCC(=O)*; Phe(3-CF3) = N[C@@H](Cc1cccc(C(F)(F)F)c1)C(=O)O; Phe(3-OMe) = COc1cccc(C[C@H](N)C(=O)O)c1; Phe(2-Cl) = N[C@@H](Cc1ccccc1Cl)C(=O)O; Bta = N[C@@H](Cc1csc2ccccc12)C(=O)O; Lys(iPr) = CC(C)NCCCC[C@H](N)C(=O)O; αAllylPro = C=CC[C@@]1(C(=O)O)CCCN1; tBuAla = CC(C)(C)C[C@H](N)C(=O)O; Cha = N[C@@H](CC1CCCCC1)C(=O)O; S8 = C=CCCCCCC[C@](C)(N)C(=O)O; Thr(ol) = C[C@@H](O)[C@H](N)CO; Propanoyl(3-OMe) = COCCC(=O)*; Leu(ol) = CC(C)C[C@H](N)CO; Alaol = C[C@@H](CO)N*; Ms = CS(=O)(=O)* Some results are limits rather than exact numbers.

The target of the first test is T1, B-cat-Halo. Nature of the test: cell-based or functional assay.
Regarding Ac-[αAllylPro]D[tBuAla][B5(3)]DDAA[Phe(3-CF3)]L[PyrS2″]F[Bta]Q-NH2 (staple 1-4, 4-11 (inferred)) [I-1128], the “NanoBRET Abs IC50” value is 8.1 µM. Take Ac-[αAllylPro]D[tBuAla][B5(24)]DD[Lys(iPr)]AFN[PyrS2″][Phe(2-Cl)][Bta]Q-NH2 (staple 1-4, 4-11) [I-1131]: the “NanoBRET Abs IC50” value came to 18.8 µM. Ac-[αAllylPro]D[tBuAla][B5(3)]DDAA[Phe(3-CF3)]L[PyrS2″][Phe(2-Cl)][Bta]Q-NH2 (staple 1-4, 4-11 (inferred)) [I-1122]: the “NanoBRET Abs IC50” value is 12.3 µM. In the case of Ac-[αAllylPro]D[tBuAla][B5(3)]DDAA[Phe(3-OMe)]L[PyrS2″][Phe(2-Cl)][Bta]Q-NH2 (staple 1-4, 4-11 (inferred)) [I-1121], the “NanoBRET Abs IC50” value was 9.2 µM. The same measure, in the same setting: then Ac-[αAllylPro]D[tBuAla][B5(3)]DDAA[Phe(3-OMe)]L[PyrS2″]F[Bta]Q-NH2 (staple 1-4, 4-11 (inferred)) [I-1127], with 5.4 µM; and Ac-[αAllylPro]D[Cha][B5(3)]DDAA[Phe(3-OMe)]S[PyrS2″]F[Bta]Q-NH2 (staple 1-4, 4-11 (inferred)) [I-1124], with more than 20 µM.

Another test has as its target T2, B-cat-Halo (beta-catenin HaloTag …). Nature of the test: cell-based or functional assay.
In the case of Ac-[αAllylPro]D[tBuAla][B5(4)]DDAAFT[PyrS2″][Phe(2-Cl)][Bta][Leu(ol)] (staple 1-4, 4-11) [I-1247], the “NanoBRET Abs IC50” value was more than 20 µM. In the case of mPEG2-[αAllylPro]D[tBuAla][B5(33)]DDAAFT[S8][Phe(2-Cl)][Bta]Q-NH2 (staple 1-4, 4-11) [I-1255], the “NanoBRET Abs IC50” value is more than 20 µM. With B1, the “NanoBRET Abs IC50” value was found to be 24 µM. Still for that read-out and setting: then Ac-[αAllylPro]D[tBuAla][B5(4)]DDAAFL[PyrS2″][Phe(2-Cl)][Bta]Q-NHEt (staple 1-4, 4-11) [I-1248], with 29.7 µM; and mPEG2-[αAllylPro]D[tBuAla][B5(5)]DDAAFN[PyrS2″][Phe(2-Cl)][Bta][dT]-NH2 (staple 1-4, 4-11) [I-1253], with more than 20 µM. For Ac-[αAllylPro]D[tBuAla][B5(4)]DDAAFL[PyrS2″][Phe(2-Cl)][Bta]-Alaol (staple 1-4, 4-11) [I-1250], the “NanoBRET Abs IC50” value was more than 20 µM. On the same count and under the same terms, then B2, with more than 20 µM; and {Propanoyl(3-OMe)}-[αAllylPro]D[tBuAla][B5(33)]DDAAFN[PyrS2][Phe(2-Cl)][Bta][dT]-NH2 (staple 1-4, 4-11) [I-1259], with 18.1 µM. Turning to Ac-[αAllylPro]D[tBuAla][B5(4)]DDAAFL[PyrS2″][Phe(2-Cl)][Bta][Thr(ol)] (staple 1-4, 4-11) [I-1249], the “NanoBRET Abs IC50” value was determined as 25.2 µM. Regarding {Propanoyl(3-OMe)}-[αAllylPro]D[tBuAla][B5(33)]DDAAFT[S8][Phe(2-Cl)][Bta]Q-NH2 (staple 1-4, 4-11) [I-1261], the “NanoBRET Abs IC50” value came out at 19.8 µM.
